Assay results published in patent publication US20240092867A1 (UNIVERSITY OF CHICAGO, published 2024).

T1: recombinant laminin α3 2928-3150 protein (linker domain and LG4 domain) (human, UniProt Q16787 2928-3150)
T1 construct: range 2928-3150; Made in HEK-293F cells; also called laminin alpha 3 LG domain recombinant protein
T1 sequence: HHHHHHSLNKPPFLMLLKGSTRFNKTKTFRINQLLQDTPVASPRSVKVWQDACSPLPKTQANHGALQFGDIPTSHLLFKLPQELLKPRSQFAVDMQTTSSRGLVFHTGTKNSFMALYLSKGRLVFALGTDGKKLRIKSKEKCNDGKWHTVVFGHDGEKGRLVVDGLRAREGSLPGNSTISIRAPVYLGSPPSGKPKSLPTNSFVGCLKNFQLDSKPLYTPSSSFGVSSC

T2: recombinant human VEGF-A145 (human, UniProt P15692-6 27-171)
T2 sequence (looked up): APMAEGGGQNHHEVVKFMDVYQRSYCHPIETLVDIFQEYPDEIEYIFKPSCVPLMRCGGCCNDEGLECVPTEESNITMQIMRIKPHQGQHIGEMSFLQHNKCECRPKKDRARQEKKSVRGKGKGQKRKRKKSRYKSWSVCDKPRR

B1: vascular endothelial growth factor (VEGF)-A121 (ligand, human, UniProt P15692-9 27-147, looked up)
chain: APMAEGGGQNHHEVVKFMDVYQRSYCHPIETLVDIFQEYPDEIEYIFKPSCVPLMRCGGCCNDEGLECVPTEESNITMQIMRIKPHQGQHIGEMSFLQHNKCECRPKKDRARQEKCDKPRR
notes: mature; Purchased in mature form, not glycosylated
B2: Arg substituted HBD (peptide)
peptide: YIGLKDSKSPSELSSIASQVKYAC
notes: not in the list MOLECULES; also called vWF A1 HBD with Arg substituted by Ser; mutated HBD peptide

Key:
human plasma-derived vWF = molecular target: T3, human plasma-derived vWF (human, UniProt P04275 764-2813); assay: ELISA, GF coated 50 nM, vWF 1 µg/mL
T3 construct: mature; also called plasma-derived purified vWF; von Willebrand factor

laminin-411 = molecular target: T4, laminin-411 (human, UniProt Q16363 25-1823; P07942 22-1786; P11047 34-1609); assay: ELISA, GF coated, laminin 10 nM
T4 construct: Full-length recombinant human laminin isoform (BioLamina); chains read from the isoform name
T4 sequence (Q16363 25-1823 limits assumed, chain 1 of 3): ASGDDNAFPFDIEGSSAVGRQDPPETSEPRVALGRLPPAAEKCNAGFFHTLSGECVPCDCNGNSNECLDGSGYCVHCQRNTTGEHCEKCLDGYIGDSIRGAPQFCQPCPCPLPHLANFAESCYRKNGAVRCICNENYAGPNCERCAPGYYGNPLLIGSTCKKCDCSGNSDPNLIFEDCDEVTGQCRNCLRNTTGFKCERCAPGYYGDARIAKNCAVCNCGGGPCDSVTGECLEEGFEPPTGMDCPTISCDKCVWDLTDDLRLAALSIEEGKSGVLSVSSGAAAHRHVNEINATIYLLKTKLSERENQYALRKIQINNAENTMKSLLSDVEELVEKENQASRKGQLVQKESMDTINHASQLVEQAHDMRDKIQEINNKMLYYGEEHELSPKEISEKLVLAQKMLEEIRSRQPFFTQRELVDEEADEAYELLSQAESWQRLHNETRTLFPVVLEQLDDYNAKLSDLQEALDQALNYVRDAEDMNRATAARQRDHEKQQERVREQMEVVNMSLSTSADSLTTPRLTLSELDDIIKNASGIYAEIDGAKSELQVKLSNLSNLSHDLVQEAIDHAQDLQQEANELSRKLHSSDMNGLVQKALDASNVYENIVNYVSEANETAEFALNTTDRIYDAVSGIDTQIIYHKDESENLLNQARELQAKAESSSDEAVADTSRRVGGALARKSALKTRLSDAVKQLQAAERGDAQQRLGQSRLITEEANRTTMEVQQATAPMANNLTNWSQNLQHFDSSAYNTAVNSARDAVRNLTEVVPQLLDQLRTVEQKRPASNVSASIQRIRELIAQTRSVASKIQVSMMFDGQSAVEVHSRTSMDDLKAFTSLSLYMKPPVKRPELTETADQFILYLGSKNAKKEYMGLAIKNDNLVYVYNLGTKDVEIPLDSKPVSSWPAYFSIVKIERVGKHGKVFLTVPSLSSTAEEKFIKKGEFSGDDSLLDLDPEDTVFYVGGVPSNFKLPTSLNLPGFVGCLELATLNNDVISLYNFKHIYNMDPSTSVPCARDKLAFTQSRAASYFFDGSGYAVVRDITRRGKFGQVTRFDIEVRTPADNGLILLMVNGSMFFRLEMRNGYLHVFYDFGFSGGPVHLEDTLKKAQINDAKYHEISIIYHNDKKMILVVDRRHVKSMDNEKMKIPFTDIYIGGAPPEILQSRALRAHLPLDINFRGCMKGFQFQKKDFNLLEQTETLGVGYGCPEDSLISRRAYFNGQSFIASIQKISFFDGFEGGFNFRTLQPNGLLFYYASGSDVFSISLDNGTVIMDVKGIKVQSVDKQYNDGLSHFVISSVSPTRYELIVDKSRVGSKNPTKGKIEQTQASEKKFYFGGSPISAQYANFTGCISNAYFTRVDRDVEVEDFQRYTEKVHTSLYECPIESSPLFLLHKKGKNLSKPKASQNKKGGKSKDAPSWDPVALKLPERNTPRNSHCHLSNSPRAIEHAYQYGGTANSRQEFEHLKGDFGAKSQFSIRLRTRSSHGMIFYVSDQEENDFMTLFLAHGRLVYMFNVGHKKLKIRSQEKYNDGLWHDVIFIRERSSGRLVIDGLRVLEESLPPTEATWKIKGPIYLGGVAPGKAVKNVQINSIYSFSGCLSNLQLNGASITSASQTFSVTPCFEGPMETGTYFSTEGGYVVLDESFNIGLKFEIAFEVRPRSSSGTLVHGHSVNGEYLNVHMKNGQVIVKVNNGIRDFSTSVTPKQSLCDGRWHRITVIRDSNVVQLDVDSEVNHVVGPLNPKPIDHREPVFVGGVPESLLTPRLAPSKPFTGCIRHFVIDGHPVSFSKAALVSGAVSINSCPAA
T4 sequence (P07942 22-1786 limits assumed, chain 2 of 3): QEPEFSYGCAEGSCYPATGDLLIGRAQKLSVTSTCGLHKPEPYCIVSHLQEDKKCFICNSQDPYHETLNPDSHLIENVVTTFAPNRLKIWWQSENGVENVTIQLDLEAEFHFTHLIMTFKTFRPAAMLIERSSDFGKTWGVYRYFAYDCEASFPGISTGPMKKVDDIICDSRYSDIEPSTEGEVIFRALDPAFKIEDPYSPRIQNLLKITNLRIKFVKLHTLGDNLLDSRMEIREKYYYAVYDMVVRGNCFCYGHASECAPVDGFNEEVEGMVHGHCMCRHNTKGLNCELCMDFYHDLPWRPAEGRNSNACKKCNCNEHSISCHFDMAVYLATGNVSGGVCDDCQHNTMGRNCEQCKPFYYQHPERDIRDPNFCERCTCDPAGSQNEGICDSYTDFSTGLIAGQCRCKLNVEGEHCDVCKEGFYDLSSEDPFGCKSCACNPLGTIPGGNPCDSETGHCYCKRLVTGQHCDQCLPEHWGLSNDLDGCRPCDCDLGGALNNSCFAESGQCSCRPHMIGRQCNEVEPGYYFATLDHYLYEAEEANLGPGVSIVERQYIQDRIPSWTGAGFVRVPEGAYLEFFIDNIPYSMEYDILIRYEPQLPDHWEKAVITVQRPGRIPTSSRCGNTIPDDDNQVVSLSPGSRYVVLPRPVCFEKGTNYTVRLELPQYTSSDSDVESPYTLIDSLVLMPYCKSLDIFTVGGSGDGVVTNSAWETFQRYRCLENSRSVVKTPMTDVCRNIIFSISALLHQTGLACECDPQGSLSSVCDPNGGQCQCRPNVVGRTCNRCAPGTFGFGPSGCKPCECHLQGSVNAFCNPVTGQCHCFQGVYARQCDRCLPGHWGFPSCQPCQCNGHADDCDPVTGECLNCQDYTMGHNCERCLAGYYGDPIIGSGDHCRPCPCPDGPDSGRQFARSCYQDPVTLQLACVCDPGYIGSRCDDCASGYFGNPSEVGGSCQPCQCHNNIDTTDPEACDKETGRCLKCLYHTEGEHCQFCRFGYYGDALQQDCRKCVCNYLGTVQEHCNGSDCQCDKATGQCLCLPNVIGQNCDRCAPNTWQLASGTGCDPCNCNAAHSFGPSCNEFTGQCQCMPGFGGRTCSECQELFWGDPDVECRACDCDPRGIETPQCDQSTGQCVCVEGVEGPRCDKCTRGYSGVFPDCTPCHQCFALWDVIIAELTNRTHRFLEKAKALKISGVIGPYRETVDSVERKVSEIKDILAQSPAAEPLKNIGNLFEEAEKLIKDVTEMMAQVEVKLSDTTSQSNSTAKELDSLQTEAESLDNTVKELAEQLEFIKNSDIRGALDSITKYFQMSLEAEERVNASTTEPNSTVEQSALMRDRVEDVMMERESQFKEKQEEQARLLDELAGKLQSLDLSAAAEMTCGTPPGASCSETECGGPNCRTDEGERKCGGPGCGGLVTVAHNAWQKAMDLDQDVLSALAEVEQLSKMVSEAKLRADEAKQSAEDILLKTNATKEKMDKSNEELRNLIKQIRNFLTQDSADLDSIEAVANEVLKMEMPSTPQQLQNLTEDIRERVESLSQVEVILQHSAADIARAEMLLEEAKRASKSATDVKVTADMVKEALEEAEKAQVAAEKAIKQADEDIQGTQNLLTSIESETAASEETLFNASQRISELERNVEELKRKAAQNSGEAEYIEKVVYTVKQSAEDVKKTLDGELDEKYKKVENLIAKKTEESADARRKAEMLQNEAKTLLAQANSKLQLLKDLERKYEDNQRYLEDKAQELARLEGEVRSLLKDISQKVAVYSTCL
T4 sequence (P11047 34-1609 limits assumed, chain 3 of 3): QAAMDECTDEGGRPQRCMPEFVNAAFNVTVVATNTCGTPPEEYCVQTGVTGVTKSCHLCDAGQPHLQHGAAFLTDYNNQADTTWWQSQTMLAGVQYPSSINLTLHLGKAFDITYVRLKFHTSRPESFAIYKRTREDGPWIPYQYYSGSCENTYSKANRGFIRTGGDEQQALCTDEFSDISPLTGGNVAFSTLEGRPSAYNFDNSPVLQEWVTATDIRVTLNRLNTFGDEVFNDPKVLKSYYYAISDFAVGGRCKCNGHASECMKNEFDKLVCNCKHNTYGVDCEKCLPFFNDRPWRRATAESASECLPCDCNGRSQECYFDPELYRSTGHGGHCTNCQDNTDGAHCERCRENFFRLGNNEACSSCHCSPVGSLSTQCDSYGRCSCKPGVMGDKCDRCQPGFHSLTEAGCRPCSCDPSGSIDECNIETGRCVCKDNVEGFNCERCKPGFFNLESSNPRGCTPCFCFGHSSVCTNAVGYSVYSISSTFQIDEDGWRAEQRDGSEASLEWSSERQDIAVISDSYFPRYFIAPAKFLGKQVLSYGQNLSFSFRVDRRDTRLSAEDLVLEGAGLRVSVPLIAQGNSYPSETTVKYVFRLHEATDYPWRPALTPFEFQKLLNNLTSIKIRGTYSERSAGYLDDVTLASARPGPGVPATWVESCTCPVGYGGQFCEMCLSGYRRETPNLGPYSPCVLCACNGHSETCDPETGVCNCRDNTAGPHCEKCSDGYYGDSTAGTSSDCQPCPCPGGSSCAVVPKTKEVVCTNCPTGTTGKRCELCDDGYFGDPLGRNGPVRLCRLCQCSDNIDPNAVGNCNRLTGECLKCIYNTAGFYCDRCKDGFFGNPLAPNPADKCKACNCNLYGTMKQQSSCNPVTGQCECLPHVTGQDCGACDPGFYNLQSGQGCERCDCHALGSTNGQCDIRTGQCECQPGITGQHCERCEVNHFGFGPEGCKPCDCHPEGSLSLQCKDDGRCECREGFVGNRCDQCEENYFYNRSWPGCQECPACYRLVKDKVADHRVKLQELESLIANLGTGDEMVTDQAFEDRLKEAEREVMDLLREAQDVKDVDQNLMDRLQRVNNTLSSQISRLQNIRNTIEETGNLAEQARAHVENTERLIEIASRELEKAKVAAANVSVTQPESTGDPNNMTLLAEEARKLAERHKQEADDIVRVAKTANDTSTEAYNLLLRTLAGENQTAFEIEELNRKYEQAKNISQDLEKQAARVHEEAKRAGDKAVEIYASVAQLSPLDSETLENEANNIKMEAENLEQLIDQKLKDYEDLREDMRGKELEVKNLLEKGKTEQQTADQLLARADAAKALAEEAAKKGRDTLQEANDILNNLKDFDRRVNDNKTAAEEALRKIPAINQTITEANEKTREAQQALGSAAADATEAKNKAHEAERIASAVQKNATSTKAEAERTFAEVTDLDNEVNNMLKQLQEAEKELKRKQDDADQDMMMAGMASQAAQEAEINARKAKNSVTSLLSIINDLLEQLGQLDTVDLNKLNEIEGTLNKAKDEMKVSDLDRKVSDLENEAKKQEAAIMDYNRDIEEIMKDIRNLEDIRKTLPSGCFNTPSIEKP

laminin-111 = molecular target: T5, laminin-111 (human, UniProt P25391 18-3075; P07942 22-1786; P11047 34-1609); assay: ELISA, GF coated, laminin 10 nM
T5 construct: Full-length recombinant human laminin isoform (BioLamina); Chain composition is read from the isoform name

laminin-421 = molecular target: T6, laminin-421 (human, UniProt Q16363 25-1823; P55268 33-1798; P11047 34-1609); assay: ELISA, GF coated, laminin 10 nM
T6 construct: Full-length recombinant human laminin isoform (BioLamina); chains read from the isoform name

laminin-511 = molecular target: T7, laminin-511 (human, UniProt O15230 36-3695; P07942 22-1786; P11047 34-1609); assay: ELISA, GF coated, laminin 10 nM
T7 construct: Full-length recombinant human laminin isoform (BioLamina); chains read from the isoform name

laminin-211 = molecular target: T8, laminin-211 (human, UniProt P24043 23-3122; P07942 22-1786; P11047 34-1609); assay: ELISA, GF coated, laminin 10 nM
T8 construct: Full-length recombinant human laminin isoform (BioLamina); chains read from the isoform name

laminin-332 = molecular target: T9, laminin-332 (human, UniProt Q16787 28-1724; Q13751 18-1172; Q13753 22-1193, limits assumed); assay: ELISA, GF coated, laminin 10 nM
T9 construct: Full-length recombinant human laminin isoform (BioLamina); chains read from the isoform name

laminin-521 = molecular target: T10, laminin-521 (human, UniProt O15230 36-3695; P55268 33-1798; P11047 34-1609); assay: ELISA, GF coated, laminin 10 nM
T10 construct: Full-length recombinant human laminin isoform (BioLamina); chains read from the isoform name

[1] = molecular target: T11, recombinant human vWF A1 domain (human, UniProt P04275 1261-1468, limits assumed); assay: ELISA; recombinant vWF A1 domain coated (10 µg/mL, legend paragraph 67), GF in solution, detected with anti-VEGF-A antibody [panel B]
T11 construct: domain: A1; also called vWF A1 recombinant protein; recombinant A1 domain
Experimental: FIGS. 18A-C. […] Bound GFs were detected using a specific antibody for each GF (n=4, mean±SD). Statistical analyses were done using ANOVA with Tukey's test or Student's t-test. *p<0.05, **p<0.01.
ELISA tests were performed as described above. […] After blocking with 2% BSA solution containing PBS-T, 1 μg/mL of the recombinant human proteins VEGF-A121, VEGF-A165, PlGF-1, PlGF-2, PDGF-BB, FGF-2, CXCL-12α and CXCL-12γ were added. 1 μg/mL of BSA served as non-binding protein control. Bound GF or chemokine was detected with biotinylated antibodies for human VEGF-A, PlGF, PDGF-BB, FGF-2, or CXCL-12 (R & D Systems). The antibodies were detected by streptavidin-HRP (R & D Systems). Color development and the absorbance measurement were done as described above.

[2] = molecular target: T1, recombinant laminin α3 2928-3150 …; assay: ELISA, LG domain protein coated
Experimental: Affinity of GFs against recombinant laminin LG domains. ELISA plates were coated with 1 μg/mL (A) α3₂₉₂₈₋₃₁₅₀, (B) α4₈₂₆₋₁₈₁₆, or (C) α5₃₀₂₆₋₃₄₈₂ and further incubated with 1 μg/mL of VEGF-A165, VEGF-A121, PlGF-2, PlGF-1, PDGF-BB, or FGF-2 solution. Bound GFs were detected using a specific antibody for each GF (n=4, mean±SEM). Statistical analyses were done using the Mann-Whitney U test by comparing the signals obtained from the laminin domain- and the BSA-coated wells. *p<0.05, **p<0.01. […] A SPR chip was functionalized with the laminin α3₂₉₂₈₋₃₁₅₀ recombinant protein (˜1000 RU), and each GF was flowed over the chip at indicated concentrations. Curves represent the specific responses (in RU) to laminin. Experimental curves were fitted with Langmuir binding kinetics.
ELISA tests were performed as described above. […] 1 μg/mL of BSA served as non-binding protein control. After blocking with 2% BSA PBS-0.05% Tween 20 (PBS-T) solution, 1 μg/mL of the recombinant human proteins (VEGF-A121, VEGF-A165, PlGF-1, PlGF-2, PDGF-BB or FGF-2) or 10 μg/mL of biotinylated heparin (Sigma-Aldrich) were added. Bound GF was detected with biotinylated antibodies for human VEGF, PlGF, PDGF-BB, or FGF-2 (R&D Systems). The antibodies were detected by streptavidin-HRP (R&D Systems).

[3] = molecular target: T12, pro-peptide containing recombinant vWF (UniProt P04275 23-2813); assay: ELISA; peptides and vWF forms coated at 50 nM, VEGF-A in solution, detected with anti-VEGF-A antibody [panel D]
T12 construct: also called immature, pro-peptide-containing recombinant vWF
Experimental: (§1) (A) Diagram of exon sequence of VEGF-A showing inclusion (+) or exclusion (−) of heparin binding domain exons for the different VEGF-A isoforms. […] Bound VEGF-A was detected using a specific antibody for VEGF-A (n=4, mean±SD). Statistical comparisons were done using ANOVA with Tukey's test compared with BSA control. **p<0.01.
(§2) ELISA was performed as previously reported1. […] After blocking with 2% BSA solution containing PBS-T, 1 μg/mL of recombinant human VEGF-A121 (PeproTech), recombinant human VEGF-A145 (R & D Systems), or recombinant human VEGF-A165 (PeproTech) was added. Bound VEGF-A was detected with 1 μg/mL of mouse anti-human VEGF-A antibody (clone: 26503, R & D systems). After 60 min of incubation, horseradish peroxidase (HRP) conjugated goat anti-mouse antibody (1:2000 dilution, Dako) was added and incubated for another 60 min. Color development and the absorbance measurement were done as described above.

[4] = molecular target: T13, recombinant human vWF A3 domain (human, UniProt P04275 1683-1874); assay: as above
T13 construct: domain: A3
Experimental: as §1, §2

[5] = molecular target: T14, recombinant human vWF A2 domain (human, UniProt P04275 1498-1665); assay: as above
T14 construct: domain: A2
Experimental: as §1, §2

[6] = molecular target: T2, recombinant human VEGF-A145; assay: ELISA; peptides and vWF forms coated at 50 nM, VEGF-A in solution, detected with anti-VEGF-A antibody [panel C]
Experimental: as §1, §2

[7] = molecular target: T15, vascular endothelial growth factor (VEGF)-A165 (human, UniProt P15692-4 27-191); assay: ELISA; peptides and vWF forms coated at 50 nM, VEGF-A in solution, detected with anti-VEGF-A antibody [panel B]
T15 construct: mature; Purchased in mature form, not glycosylated
Experimental: as §1, §2

[8] = molecular target: B1; assay: ELISA; peptides and vWF forms coated at 50 nM, VEGF-A in solution, detected with anti-VEGF-A antibody [panel D]
Experimental: as §1, §2

Row | Binder | binding result (human plasma-derived vWF) | binding result (laminin-411) | binding result (laminin-111) | binding result (laminin-421) | binding result (laminin-511) | binding result (laminin-211) | binding result (laminin-332) | binding result (laminin-521) | binding result [1] | binding result [2] | binding result [3] | binding result [4] | binding result [5] | binding result [6] | binding result [7] | binding result [8]
1 | B1 | no binding | no binding (tested: A450 0.1) | no binding (tested: A450 0.1) | no binding (tested: A450 0.1) | no binding (tested: A450 0.1) | no binding (tested: A450 0.1) | no binding (tested: A450 0.1) | no binding (tested: A450 0.1) | no binding (tested: 1 µg/mL VEGF-A121 (single concentration)) | no binding (tested: 1 µg/mL) | no binding (tested: 1 µg/mL VEGF-A121 (single concentration)) | no binding (tested: 1 µg/mL VEGF-A121 (single concentration)) | no binding (tested: 1 µg/mL VEGF-A121 (single concentration)) | – | – | –
2 | B2 | – | – | – | – | – | – | – | – | – | – | – | – | – | no binding (tested: 1 µg/mL VEGF-A145 (single concentration)) | no binding (tested: 1 µg/mL VEGF-A165 (single concentration)) | no binding (tested: 1 µg/mL VEGF-A121 (single concentration))
